The results in this text go back to the Immune Epitope Database (IEDB).

Common to all, as to experiment: IEDB peptide-MHC binding, purified MHC/competitive/radioactivity; filed as Kd, often an IC50 or EC50 that approximates it; ≥ and ≤ were set here for values at or beyond the usual limits of such assays
Experiment [1] has as its target HLA-A*11:01.
Experiment [2] addresses HLA-A*03:01.
For experiment [3], the target named is HLA-A*31:01.
Experiment [4] addresses HLA-A*68:01.
Experiment [5] addresses HLA-A*33:01.
Setting [6] is: source organism: Vaccinia virus WR.
[7] abbreviates: source organism: Mammarenavirus juninense.
Setting [8] is: source organism: Mammarenavirus machupoense.
[9] abbreviates: source organism: SARS coronavirus Tor2.
Where [10] appears, read: source organism: Lassa virus GA391.
Where [11] appears, read: source organism: Mammarenavirus lassaense.
Where [12] appears, read: source organism: Mammarenavirus brazilense.

Regarding SLIKFISDNK, the dissociation constant (Kd) was 23.7 nM in experiment [1] (setting [6]); 14.9 nM in experiment [2] (setting [6]); 2650 nM in experiment [3] (setting [6]); 69.1 nM in experiment [4] (setting [6]); not below 70000 nM in experiment [5] (setting [6]).

As to VMNIERQDYR, the Kd was determined as 4140 nM in experiment [1] (setting [6]); 11400 nM in experiment [2] (setting [6]); 46.7 nM in experiment [3] (setting [6]); 153 nM in experiment [4] (setting [6]); 65.1 nM in experiment [5] (setting [6]).

For the sequence DLTTMPTYK, the Kd in experiment [1] (setting [6]) amounted to 293 nM; in experiment [2] (setting [6]), 757 nM; in experiment [3] (setting [6]) it was 630 nM; in experiment [4] (setting [6]) it was 128 nM; in experiment [5] (setting [6]) it was 914 nM.

Turning to SWPLQCPLDH, the dissociation constant (Kd) in experiment [1] (setting [7]) was not below 69700 nM; in experiment [2] (setting [7]), not below 70000 nM; in experiment [3] (setting [7]), not below 22800 nM; in experiment [4] (setting [7]) it was not below 70100 nM; in experiment [5] (setting [7]), not below 38500 nM.

HYIHCFRKPH: the Kd was not below 69700 nM in experiment [1] (setting [8]); not below 70000 nM in experiment [2] (setting [8]); 89.8 nM in experiment [3] (setting [8]); not below 70100 nM in experiment [4] (setting [8]); 589 nM in experiment [5] (setting [8]).

Turning to MLPPCYNFLK, the Kd in experiment [1] (setting [9]) stood at 9.53 nM; in experiment [2] (setting [9]), 6.77 nM; in experiment [3] (setting [9]), 129 nM; in experiment [4] (setting [9]) it was 2.61 nM; in experiment [5] (setting [9]), 138 nM.

IIGHIGHHY: the Kd in experiment [1] (setting [6]) is 4620 nM; in experiment [2] (setting [6]) it was 6390 nM; in experiment [3] (setting [6]), not below 77900 nM; in experiment [4] (setting [6]) it was not below 23100 nM; in experiment [5] (setting [6]) it was not below 77700 nM.

Consider ENAVWDQFK, for which the Kd in experiment [1] (setting [10]) is 15100 nM; in experiment [2] (setting [10]), not below 31500 nM; in experiment [3] (setting [10]), not below 77900 nM; in experiment [4] (setting [10]), 250 nM; in experiment [5] (setting [10]) it was 1020 nM.

VQMLSDTLK: the Kd in experiment [1] (setting [9]) was 18.7 nM; in experiment [2] (setting [9]), 74.3 nM; in experiment [3] (setting [9]), 413 nM; in experiment [4] (setting [9]) it was 2480 nM; in experiment [5] (setting [9]), not below 77700 nM.

For NLTETFRDY, the Kd was not below 77900 nM in experiment [1] (setting [6]); not below 78000 nM in experiment [2] (setting [6]); not below 77900 nM in experiment [3] (setting [6]); not below 37400 nM in experiment [4] (setting [6]); not below 77700 nM in experiment [5] (setting [6]).

YTCEDNTGIK: the Kd is 1060 nM in experiment [1] (setting [6]); not below 29700 nM in experiment [2] (setting [6]); not below 70000 nM in experiment [3] (setting [6]); 256 nM in experiment [4] (setting [6]); not below 70000 nM in experiment [5] (setting [6]).

Regarding IILAALFMY, the Kd in experiment [1] (setting [6]) was 0.307 nM; in experiment [2] (setting [6]), 20.5 nM; in experiment [3] (setting [6]), 11400 nM; in experiment [4] (setting [6]), not below 55700 nM; in experiment [5] (setting [6]), 13300 nM.

Consider ICKMPLPTR, for which the Kd in experiment [1] (setting [11]) is 6030 nM; in experiment [2] (setting [11]), not below 40300 nM; in experiment [3] (setting [11]), 36.8 nM; in experiment [4] (setting [11]), 16100 nM; in experiment [5] (setting [11]), 775 nM.

For the sequence PLFHGGEPIK, the Kd is not below 28700 nM in experiment [1] (setting [6]); 18300 nM in experiment [2] (setting [6]); not below 70000 nM in experiment [3] (setting [6]); not below 70200 nM in experiment [4] (setting [6]); not below 70000 nM in experiment [5] (setting [6]).

LMPILTLTR: the Kd came to 1130 nM in experiment [1] (setting [9]); 102 nM in experiment [2] (setting [9]); 723 nM in experiment [3] (setting [9]); 1720 nM in experiment [4] (setting [9]); 15000 nM in experiment [5] (setting [9]).

With FASADNHPK, the Kd was 174 nM in experiment [1] (setting [6]); 7960 nM in experiment [2] (setting [6]); 12400 nM in experiment [3] (setting [6]); 55.7 nM in experiment [4] (setting [6]); 1240 nM in experiment [5] (setting [6]).

As for KIKQDVRDK, the Kd in experiment [1] (setting [6]) was 19800 nM; in experiment [2] (setting [6]) it was 241 nM; in experiment [3] (setting [6]), 9940 nM; in experiment [4] (setting [6]) it was not below 24900 nM; in experiment [5] (setting [6]) it was not below 77700 nM.

Turning to LFFTTTLFLH, the Kd in experiment [1] (setting [12]) is 4120 nM; in experiment [2] (setting [12]) it was 771 nM; in experiment [3] (setting [12]) it was 232 nM; in experiment [4] (setting [12]), 445 nM; in experiment [5] (setting [12]) it was 191 nM.

Turning to TMADLVYALR, the Kd in experiment [1] (setting [9]) was determined as 898 nM; in experiment [2] (setting [9]), 2250 nM; in experiment [3] (setting [9]), 81.3 nM; in experiment [4] (setting [9]), 9.4 nM; in experiment [5] (setting [9]) it was 136 nM.

One may read the Kd as the free concentration of one partner at which half of the binding sites on the other are occupied at equilibrium, for simple one-to-one binding.
